The values that follow come from patent US20090123479A1 (published 2009).

Test [1] deals with T1, recombinant cynomologus IL-23 (cynomolgus, limits assumed).
T1 construct: also called cynomolgus IL-23; cyno IL23
T1 chain 1: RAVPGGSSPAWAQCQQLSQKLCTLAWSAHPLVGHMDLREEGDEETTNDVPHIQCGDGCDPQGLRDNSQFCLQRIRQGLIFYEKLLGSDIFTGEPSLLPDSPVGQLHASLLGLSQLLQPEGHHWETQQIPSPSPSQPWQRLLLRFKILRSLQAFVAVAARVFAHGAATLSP
T1 chain 2: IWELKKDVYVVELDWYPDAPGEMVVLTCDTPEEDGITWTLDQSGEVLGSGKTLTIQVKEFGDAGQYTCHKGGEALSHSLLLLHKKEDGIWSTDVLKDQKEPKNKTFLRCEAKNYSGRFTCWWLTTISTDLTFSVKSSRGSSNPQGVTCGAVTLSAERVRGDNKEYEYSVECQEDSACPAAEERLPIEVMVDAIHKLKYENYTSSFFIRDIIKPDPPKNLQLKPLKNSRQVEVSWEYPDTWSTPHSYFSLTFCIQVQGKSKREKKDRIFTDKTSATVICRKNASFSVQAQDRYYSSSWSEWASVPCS
Briefly: SPR (Biacore 3000), hybridoma supernatant mAb captured on anti-murine IgG, cynomologus IL-23 analyte, 1:1 model, 25 C. Here is the method:
(§1) Anti-murine IgG was immobilised on a CM5 sensorchip using amine coupling chemistry. Anti-IL-23 hybridoma antibody sample was injected over the surface and the murine mAb captured. Subsequently recombinant human IL-23, recombinant cynomologus IL-23 or recombinant human IL-12 was flowed over the captured antibody surface at 5 different concentrations (range 0 nM-91 nM) to obtain binding sensorgrams. Regeneration of the surface after antibody and antigen injections was done by injecting 0.1 M phosphoric acid for 3 minutes. Double referencing was used on all sensorgrams with a buffer injection over the anti-murine IgG sensorchip surface. The experiment was performed at 25° C. in HBS-EP buffer. Resulting sensorgram data was analysed using the 1:1 binding model incorporated within the Biaevaluation software for the Biacore 3000 instrument. Data presented in Table 2 are from using hybridoma supernatant taken from a tissue culture flask.
(SPR reads the build-up and loss of mass on a sensor chip optically.)

The target of test [2] is T2, recombinant human IL-23 (human, UniProt Q9NPF7 20-189; P29460 23-328).
T2 construct: also called hIL-23
T2 sequence 1: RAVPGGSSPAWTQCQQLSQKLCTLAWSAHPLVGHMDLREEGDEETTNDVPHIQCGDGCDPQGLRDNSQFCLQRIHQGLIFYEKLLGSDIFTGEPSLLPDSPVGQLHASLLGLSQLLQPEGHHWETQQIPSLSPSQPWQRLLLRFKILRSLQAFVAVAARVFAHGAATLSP
T2 sequence 2: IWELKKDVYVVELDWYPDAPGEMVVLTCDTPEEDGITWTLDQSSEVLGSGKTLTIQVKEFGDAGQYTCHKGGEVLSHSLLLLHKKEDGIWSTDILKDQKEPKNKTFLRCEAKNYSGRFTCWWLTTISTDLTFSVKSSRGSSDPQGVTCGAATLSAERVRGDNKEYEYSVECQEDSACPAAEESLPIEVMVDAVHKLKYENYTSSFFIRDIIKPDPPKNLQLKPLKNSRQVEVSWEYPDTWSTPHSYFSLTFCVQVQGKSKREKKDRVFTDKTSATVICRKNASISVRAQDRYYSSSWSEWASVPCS
Briefly: SPR (Biacore 3000), hybridoma supernatant mAb captured on anti-murine IgG, human IL-23 analyte, 1:1 model, 25 C. The protocol: as §1

The next test concerns the target T3, Endogenous human IL-23 (human, UniProt Q9NPF7 20-189; P29460 23-328).
T3 construct: also called endogenous human IL-23 from stimulated dendritic cells
T3 sequence 1: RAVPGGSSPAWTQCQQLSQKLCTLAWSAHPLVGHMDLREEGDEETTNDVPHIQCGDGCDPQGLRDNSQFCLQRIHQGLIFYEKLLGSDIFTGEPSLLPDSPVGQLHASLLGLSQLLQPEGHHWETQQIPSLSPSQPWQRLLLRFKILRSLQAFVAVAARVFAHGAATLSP
T3 sequence 2: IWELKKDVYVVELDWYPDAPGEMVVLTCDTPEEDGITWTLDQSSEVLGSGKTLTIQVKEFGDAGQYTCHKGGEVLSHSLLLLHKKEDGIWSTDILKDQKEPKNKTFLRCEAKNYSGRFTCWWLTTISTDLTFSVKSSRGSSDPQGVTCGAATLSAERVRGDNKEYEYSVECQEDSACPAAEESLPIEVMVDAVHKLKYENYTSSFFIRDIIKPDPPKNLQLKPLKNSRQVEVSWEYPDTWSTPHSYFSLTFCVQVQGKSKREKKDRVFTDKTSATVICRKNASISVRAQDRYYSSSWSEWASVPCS
Briefly: receptor inhibition ELISA: plate coated with recombinant human IL-23 receptor, endogenous human IL-23 at 3.5 ng/ml pre-incubated with titrated purified antibody, bound IL-23 detected with biotinylated anti-human IL-12; 1% BSA. Here is the method: Recombinant human IL-23 Receptor (R&D systems 1400-IR-050) was coated onto 96 well plates at a concentration of 1 μg/ml. Endogenous human IL-23 at 3.5 ng/ml final, was pre incubated for 1 hour with a titration of purified antibody material before being added to the pre-coated plates. Detection was performed with biotinylated anti-human 1L12 (R&D systems BAF-219) followed by Streptavidin-HRP (GE Healthcare RPN 4401). This neutralisation ELISA used 1% BSA.
In general terms: ELISA stands for enzyme-linked immunosorbent assay.

Test [3] addresses T2, recombinant human IL-23. Briefly: sandwich ELISA (optimised protocol, OD450): plate coated with anti-human IL-12, antibody pre-incubated with constant human IL-23, bound antibody detected with anti-human IgG gamma chain HRP; purified antibody. Here is the method:
Optimised assay conditions: Plates were coated with anti human IL12 at 2 μg/diluent (phosphate buffered saline). 50 μl/well of this mixture was incubated overnight at 4° C. The plates were then washed three times with Phosphate Buffered Saline with 0.05% Tween 20 (PBST). Plates were blocked with 4% skim milk powder (Fluka BioChemika #70166) PBS 200 μl/well for a minimum of 1 hour at room temperature. The plates were then washed three times with Phosphate Buffered Saline+0.05% Tween 20 (PBST). Various concentrations of antibody were incubated in a separate plate with a constant concentration of IL-23 for 1 hour at room temperature. 50 ul of each mixture were transferred to the assay plate and incubated at RT for 1 hr. They were then washed three times with Phosphate Buffered Saline+0.05% Tween 20 (PBST). […] 50 μl/well of the detection antibody was added and incubated at RT for 1 hour. The plates were then washed three times with Phosphate Buffered Saline+0.05% Tween 20 (PBST). 50 μl/well of TMB was added to the plates and incubated at RT for 10 min. 50 μl/well of 1 MH₂SO₄ was added. The plate was read at OD450 nm using the SOftmaxPRO versamax plate reader.

In test [4] the target is T1, recombinant cynomologus IL-23. Briefly: IL-23/IL-23R inhibition ELISA (optimised protocol, OD450): plate coated with human IL23R Fc chimera, antibody pre-incubated with constant cynomolgus IL-23, bound IL-23 detected with biotinylated anti-human IL-12; purified antibody. Here is the method:
(§2) Optimised protocol: Plates were coated with human IL23R Fc chimera at […] (phosphate buffered saline). 50 μl/well of this mixture was incubated overnight at 4° C. The plates were then washed three times with Phosphate Buffered Saline with 0.05% Tween 20 (PBST). Plates were blocked with 4% skim milk powder (Fluka BioChemika #70166) PBST 100 μl/well for a minimum of 1 hour at room temperature. The plates were then washed three times with Phosphate Buffered Saline+0.05% Tween 20 (PBST). Various concentrations of antibody were incubated in a separate plate with a constant concentration of IL-23 for 1 hour at room temperature. 50 ul of each mixture were transferred to the assay plate and incubated at RT for 1 hr. They were then washed three times with Phosphate Buffered Saline+0.05% Tween 20 (PBST). Bound IL23 was detected by anti human 1L12 Biotin labelled Ab (R&D systems BAF219) diluted to 100 ng/ml in 4% skim milk powder (Fluka BioChemika #70166) PBST. 50 μl/well of the biotinylated antibody was added and incubated at RT for 1 hour. The plates were then washed three times with Phosphate Buffered Saline+0.05% Tween 20 (PBST). SA HRP (GE healthcare RPN4401) was diluted 1/4000 in 4% skim m ilk powder (Fluka BioChemika #70166) PBS, 50 μl/well was added to the plates. The plates were then washed three times with Phosphate Buffered Saline+0.05% Tween 20 (PBST). 50 ul/well of TMB was added to the plates and incubated at RT for 15 min. 25 μl/well of 3 MH₂SO₄ was added to the wells already containing TMB. The plate was read at OD450 nm using the SOftmaxPRO versamax plate reader.

The target of test [5] is T2, recombinant human IL-23. Briefly: IL-23/IL-23R inhibition ELISA (first protocol, OD490): plate coated with human IL23R Fc chimera, antibody pre-incubated with constant human IL-23, bound IL-23 detected with biotinylated anti-human IL-12; tissue culture supernatant. The protocol: Chimeric and humanized mAbs were assessed for their ability to neutralise human IL-23 binding to human IL-23 receptor, and cyno IL23 binding to human IL23 receptor. Plates were coated with human IL23R Fc chimera at 1 μg/diluent (bicarbonate buffer). 50 μl/well of this mixture was incubated overnight at 4° C. The plates were then washed twice with Tris Buffered Saline with 0.05% Tween 20 (TBST). Plates were blocked with 1% BSA TBST 100 μl/well for a minimum of 1 hour at room temperature. The plates were then washed twice with Tris Buffered Saline with 0.05% Tween 20 (TBST). Various concentrations of antibody were incubated in a separate plate with a constant concentration of IL-23 for 1 hour at room temperature. 50 ul of each mixture were transferred to the assay plate and incubated at RT for 1 hr. They were then washed twice with Tris Buffered Saline with 0.05% Tween 20 (TBST). Bound IL23 was detected by anti human 1L12 Biotin labelled Ab (R&D systems BAF219) diluted to 100 ng/ml in 1% BSA TBST. 50 μl/well of the biotinylated antibody was added and incubated at RT for 1 hour. The plates were then washed twice with Tris Buffered Saline with 0.05% Tween 20 (TBST). ExtrAvidin-Peroxidase (Sigma E2886) was diluted 1/1000 in 1% BSA TBST, 50 μl/well was added to the plates. […] The plate was read at OD490 nm using the SOftmaxPRO versamax plate reader.

The target of test [6] is T2, recombinant human IL-23. Briefly: SPR (Biacore T100), CHO supernatant antibody captured on Protein A or anti-human IgG, IL-23 analyte at 256, 64, 16, 4, 1 nM.
The target in test [7] is T2, recombinant human IL-23. Briefly: IL-23/IL-23R inhibition ELISA (optimised protocol, OD450): plate coated with human IL23R Fc chimera, antibody pre-incubated with constant human IL-23, bound IL-23 detected with biotinylated anti-human IL-12; purified antibody. Here is the method:
as §2

Test [8] addresses T2, recombinant human IL-23. Briefly: SPR (Biacore 3000), CHO supernatant antibody captured on Protein A or anti-human IgG, IL-23 analyte at 256, 64, 16, 4 nM.

B1: murine mAb 8C9 2H6 (antibody, V domains shown)
VH: QVQLQQSGAELARPGTSVKLSCKASGYTFTSYGITWVKQRTGQGLEWIGENYPRSGNTYYNEKFKGKATLTADKSSSTAYMELRSLTSEDSAVYFCARCEFISTVVAPYYYALDYWGQGTSVTVSS
VL: DIVLTQSPASLAVSLGQKATISCKASKKVTIFGSISALHWYQQKPGQPPKLIYNGAKLESGVSARFSDSGSQNRSPFGNQLSFTLTIDPVEADDAATYYCLQNKEVPYTFGGGTKLEIK
notes: Murine hybridoma antibody; also called mouse parental; IL-23 murine 8C92H6 mAb
As for B1, in test [1], the Kd (commonly the constant that tells how readily two partners part at equilibrium) was found to be 3.38 nM; the koff (in general, the first-order rate constant of dissociation) came to 0.000369 s⁻¹; the kon (in general, a measure of how fast the partners come together) was found to be 110000 M⁻¹ s⁻¹. In addition, in the test with recombinant human IL-23 [2], the Kd amounted to 2.99 nM, the koff came to 0.000301 s⁻¹ and the kon was 101000 M⁻¹ s⁻¹. Besides, the “IC50 (read off the curve)” value in the test with Endogenous human IL-23 is roughly 0.06 µg/mL.

B2: A3M1 (antibody, human IgG1, kappa, V domains shown)
VH: QVQLVQSGAEVKKPGSSVKVSCKASGYTFTSYGITWVRQAPGQGLEWMGENYPRSGNTYYNEKFKGRVTITADKSTSTAYMELSSLRSEDTAVYYCARSEFISTVVAPYYYALDYWGQGTLVTVSS
VL: DIVMTQSPDSLAVSLGERATINCKASKKVTIFGSISALHWYQQKPGQPPKLIYNGAKLESGVSDRFSDSGSQNRSPFGNQLSFTLTISSLQAEDVAVYYCLQNKEVPYTFGGGTKVEIKR
notes: Full length chains
For B2, the EC50 (read off the curve) – broadly, the midpoint of the concentration-response curve – with recombinant human IL-23 [3] is roughly 0.04 nM. Also, the “IC50 (read off the curve)” value in [4] was roughly 0.8 nM; in the test with recombinant human IL-23 [5], roughly 0.01 µg/mL; with recombinant human IL-23 [7], roughly 0.5 nM. Further, the Kd turned out to be 2.4 nM in the test with recombinant human IL-23 [6] and 1.5 nM with recombinant human IL-23 [8]. The koff is 0.00031 s⁻¹ with recombinant human IL-23 [6] and 0.00036 s⁻¹ in the test with recombinant human IL-23 [8]. Besides, the kon in the test with recombinant human IL-23 [6] came out at 130000 M⁻¹ s⁻¹; with recombinant human IL-23 [8], 240000 M⁻¹ s⁻¹.
